Positions of bridges follow the written chain, without caps; N, C: chain ends. No end group written: not given here. suc = not defined here

In assay [1] the target is IGF-1 G1S-A70V displayed on phage (human; bacteriophage M13). As to the kind of experiment: competitive phage ELISA: phage on an IGFBP-3-coated plate (1 µg/ml), competed by soluble IGFBP-3; OD492, mean ± SD, n=2.
Assay [2] shares this target. As to the kind of experiment: competitive phage ELISA: phage displaying G1S-A70V IGF-1 on an IGFBP-3-coated plate (1 µg/ml), competed by soluble IGFBP-3; OD492. For orientation: An ELISA detects its analyte on a solid surface through an enzyme-linked reagent.
Assay [3] concerns the target T1, human IGFBP-1 (human, UniProt P08833 26-259).
T1 sequence (looked up): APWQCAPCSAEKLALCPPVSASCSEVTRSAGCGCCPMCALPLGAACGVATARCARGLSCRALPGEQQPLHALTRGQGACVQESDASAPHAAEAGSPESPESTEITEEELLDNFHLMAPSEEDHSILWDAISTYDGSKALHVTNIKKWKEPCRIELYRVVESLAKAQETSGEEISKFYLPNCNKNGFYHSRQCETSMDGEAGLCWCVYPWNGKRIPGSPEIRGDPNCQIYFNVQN
The experiment in a line: competitive phage ELISA. As to the method:
E. coli cells (XL1-Blue, Stratagene) freshly transformed with phagemid vector were grown overnight in 5 mL 2YT medium (Sambrook et al., supra) in the presence of M13-VCS helper phage (Stratagene). Phage particles were harvested and resuspended in PBS buffer as described in Lowman, H. B., “Phage Display of Peptide Libraries on Protein Scaffolds,” in Cabilly, S. (ed.), Combinatorial Peptide Library Protocols (Humana Press Inc.: Totowa, N.J., 1998), pp. 249-264. Then phage concentrations were normalized to yield a maximal ELISA signal of 0.2-0.4 for each mutant (Lowman, in Cabilly, S. (ed.), supra). Threefold serial dilutions of soluble competitor were prepared on non-absorbent microtiter plates (Nunc, F, 96 wells) with binding buffer (0.5% TWEEN 20%/PBS) containing phage at the previously determined concentrations. […] After blocking, the plates containing immobilized target were washed with 0.05% TWEEN™/PBS buffer and subsequently incubated with 80 μl/well of the premixed phage-competitor solutions for 1 hour at room temperature. […] IC₅₀ values were determined by fitting the binding data to a generic saturation curve (Lowman, in Cabilly, S. (ed.), supra). At least two individual clones of each IGF-1 mutant were assayed. Numbers in Table XIII represent mean±standard deviation of individually assessed IC₅₀ values.

In assay [4] the target is T1, human IGFBP-1. As to the kind of experiment: competitive phage ELISA, value as restated in Table XIV (Table XIII prints 7.0 for the same pair).
For assay [5], the target named is T2, recombinant human IGFBP-3 (human, UniProt P17936 28-291). As to the kind of experiment: BIAcore competition, IGFBP-3 to IGF-1. (In general: SPR reads the build-up and loss of mass on a sensor chip optically.)
T2 sequence (P17936 28-291 limits assumed): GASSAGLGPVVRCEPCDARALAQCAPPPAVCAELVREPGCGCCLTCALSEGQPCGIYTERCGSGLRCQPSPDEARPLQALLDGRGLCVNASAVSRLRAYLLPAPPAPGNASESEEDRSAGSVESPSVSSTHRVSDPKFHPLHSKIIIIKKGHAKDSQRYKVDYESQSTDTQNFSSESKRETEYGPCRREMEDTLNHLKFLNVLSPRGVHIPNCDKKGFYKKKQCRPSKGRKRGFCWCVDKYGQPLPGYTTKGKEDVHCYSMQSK
Assay [6] addresses T2, recombinant human IGFBP-3. The experiment in a line: phage ELISA: titration of g8 peptide-phage on an IGFBP-3-coated plate without IGF-1; OD492. How it is done: The plates were then washed ten times, as above, and a solution of rabbit anti-phage antibody mixed with a goat-anti-rabbit conjugate of horseradish peroxidase was added. After an incubation of 1 hour at room temperature, the plates were developed with a chromogenic substrate, o-phenylenediamine (Sigma). The reaction was stopped with addition of ½ volume of 2.5 M H₂SO₄. Optical density at 490 nm was measured on a spectrophotometric plate reader.

The target of assay [7] is T1, human IGFBP-1. As to the kind of experiment: BIAcore, IGFBP-1 coupled to chip.
Assay [8] addresses T1, human IGFBP-1. The experiment in a line: BIAcore kinetics, IGFBP-1 coupled to chip. As to the method:
For each dilution of peptides, a global fit of the sensorgram data was performed using a 1:1 Langmuir binding model.

Assay [9] addresses T1, human IGFBP-1. The experiment in a line: ELISA inhibition assay.
Assay [10] concerns the target IGF-1 G1S-A70V displayed on phage (human; bacteriophage M13). The experiment in a line: competitive phage ELISA: phage on an IGFBP-3-coated plate (1 µg/ml), competed by soluble IGFBP-1; OD492, mean ± SD, n=2.
The target is the same in assay [11]. The experiment in a line: competitive phage ELISA: phage displaying G1S-A70V IGF-1 on an IGFBP-1-coated plate (1 µg/ml), competed by soluble IGFBP-1; OD492.
In assay [12] the target is T1, human IGFBP-1. As to the kind of experiment: BIAcore inhibition assay.
The target in assay [13] is T1, human IGFBP-1. As to the kind of experiment: BIAcore inhibition assay. As to the method: Peptides were assayed in a BIAcore™ assay as described in WO 98/45427, supra.
This is another data set of the same source.

For assay [14], the target named is T1, human IGFBP-1. The experiment in a line: inhibition assays.
Assay [15] deals with T1, human IGFBP-1. The experiment in a line: BIAcore inhibition, 9-10 nM IGFBP-1 to immobilized IGF-1.
For assay [16], the target named is T1, human IGFBP-1. The experiment in a line: BIAcore inhibition assay; reference.

Molecule “recombinant human IGFBP-3 (from UniProt P17936 28-291)” yielded an IC50 (read off the curve) in assay [1] of 0.7 nM. In addition, in assay [2], the IC50 (usually the concentration needed to halve the response being measured) was 0.5 nM. Turning to “IGF-1 F16A displayed on phage (from UniProt P69168 267-424) (ligand)”, the relative IC50 (mut/G1S-A70V) with human IGFBP-1 [3] was determined as 7; with human IGFBP-1 [4], 6. In the case of suc-CQLVRPDLLLCQ-NH2 (disulfide 1-11; reading uncertain, also called phage parent t4H3.6) [BP3-107], in assay [5], the IC50 was 100000 nM.

B1: peptide-phage clone 4D3.4 (g8 display) (peptide, not shown: large carriers)
chain: RVGAYISCSETECWVEDLLD
modifications: not fully specified (bridges); cysteine pairing not given here; also: polyvalent display on M13 phage, fused via linker to g8p
notes: polyvalent display on M13 phage
B1: the binding result in [6] is reported as “binds”. SEVGCRAGPLQWLCEKYFG (disulfide 5-14) [BP1-02]: in the assay with human IGFBP-1 [7], the “half-life for peptide dissociation” value is around 28 s, the koff (usually the rate constant with which the complex falls apart) amounted to 0.0503 s⁻¹ and the kon (commonly the rate constant with which the complex forms) came out at 230000 M⁻¹ s⁻¹. The Kd (in general, the equilibrium constant for the complex coming apart) in the assay with human IGFBP-1 [8] is 210 nM. With CRAGPLQWRCEKYF (disulfide 1-10, also called BP1-16 L9R) [BP1-26], the binding result with human IGFBP-1 [9] was “no binding (tested: >570-fold the IC50 of BP1-16)”.

For the molecule CRAGPRQWLCEKYF (disulfide 1-10, also called BP1-16 L6R) [BP1-32], in the assay with human IGFBP-1 [9], the binding result is “no binding (tested: >1000-fold the IC50 of BP1-16)”.

B2: human IGFBP-1 (protein, UniProt P08833 26-259, looked up)
chain: APWQCAPCSAEKLALCPPVSASCSEVTRSAGCGCCPMCALPLGAACGVATARCARGLSCRALPGEQQPLHALTRGQGACVQESDASAPHAAEAGSPESPESTEITEEELLDNFHLMAPSEEDHSILWDAISTYDGSKALHVTNIKKWKEPCRIELYRVVESLAKAQETSGEEISKFYLPNCNKNGFYHSRQCETSMDGEAGLCWCVYPWNGKRIPGSPEIRGDPNCQIYFNVQN
Turning to B2, the IC50 (read off the curve) in [10] amounted to 8 nM. Further, in assay [11], the IC50 amounted to 8.5 nM. As for Ac-LEWLAEKYEG (linker 2-9 via 1,5‑diaminopentane) [(i+7)B], the binding result in the assay with human IGFBP-1 [12] is “no binding (tested: >360-fold weaker than BP1-01)”. Besides, the “fold potency reduction, IC50 (BP1-01)/IC50 (mut)” value with human IGFBP-1 [13] was above 360. On to EARVCRAGPLQWLCEKYFSTY (disulfide 5-14) [BP1-25], for which the “fold affinity improvement over BP1-16” value in the assay with human IGFBP-1 [14] is around 20 fold. This molecule had a Kd in the assay with human IGFBP-1 [8] of 42 nM.

B3: peptide-phage clone 4D3.5 (g8 display) (peptide, not shown: large carriers)
chain: WFKTVCYEWEDEVQCYTLEE
modifications: not fully specified (bridges); cysteine pairing not given here; also: polyvalent display on M13 phage, fused via linker to g8p
notes: as for B1
B3: the binding result in assay [6] is “binds”. As for suc-IPVSPDWFVCQ-NH2 (reading uncertain, also called phage parent t4H3.9) [BP3-108], the IC50 in assay [5] is 20000 nM. Turning to GQQSCAAGPLQWLCEHYFSTYGR (not fully specified (bridges); cysteine pairing not given here) [BP1-625], the “fold improved potency over BP1-01” value with human IGFBP-1 [15] is around 20 fold. Take CRAGPLQWLCEKYFG (disulfide 1-10) [BP1-01]: the “fold potency reduction, IC50 (BP1-01)/IC50 (mut)” value with human IGFBP-1 [16] came out at 1.
